Legend:
CD22 [1] = biological target: T1, CD22 (UniProt P20273 20-847, limits assumed); experiment: flow cytometry (data not shown)
T1 construct: whole, on cells

CD37 = biological target: T2, CD37 (UniProt P11049 1-281, limits assumed); experiment: flow cytometry, anti-HIS antibody
T2 construct: whole, on cells
T2 sequence (looked up): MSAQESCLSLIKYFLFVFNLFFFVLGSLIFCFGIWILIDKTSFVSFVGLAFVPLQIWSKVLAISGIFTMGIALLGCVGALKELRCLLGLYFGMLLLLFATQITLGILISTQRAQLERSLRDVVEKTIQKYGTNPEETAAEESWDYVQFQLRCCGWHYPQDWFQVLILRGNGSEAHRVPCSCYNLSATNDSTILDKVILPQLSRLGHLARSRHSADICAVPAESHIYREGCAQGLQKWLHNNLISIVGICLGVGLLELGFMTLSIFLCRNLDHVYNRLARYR

CD33 = biological target: T3, CD33 (UniProt P20138 18-364, limits assumed); experiment: flow cytometry, anti-HIS antibody
T3 construct: whole, on cells; Endogenous on human cell lines; also called Siglec-3
T3 sequence (P20138 18-364 limits assumed): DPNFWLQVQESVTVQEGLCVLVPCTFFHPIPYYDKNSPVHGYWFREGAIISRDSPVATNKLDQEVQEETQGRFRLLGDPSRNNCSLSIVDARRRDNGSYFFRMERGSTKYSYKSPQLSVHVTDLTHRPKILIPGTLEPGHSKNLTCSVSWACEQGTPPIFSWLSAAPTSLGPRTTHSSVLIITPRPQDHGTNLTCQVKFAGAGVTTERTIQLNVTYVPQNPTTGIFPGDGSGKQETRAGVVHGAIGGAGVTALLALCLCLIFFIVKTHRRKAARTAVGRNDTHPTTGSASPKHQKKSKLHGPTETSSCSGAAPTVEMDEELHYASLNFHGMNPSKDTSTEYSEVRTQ

CD16 = biological target: T4, CD16 (human, UniProt P08637 17-254); experiment: binding to NK cells (method not told)
T4 construct: whole, on cells; CD16 is the antigen of the 3G8 arm of these molecules; also called FcγRIII
T4 sequence (P08637 17-254): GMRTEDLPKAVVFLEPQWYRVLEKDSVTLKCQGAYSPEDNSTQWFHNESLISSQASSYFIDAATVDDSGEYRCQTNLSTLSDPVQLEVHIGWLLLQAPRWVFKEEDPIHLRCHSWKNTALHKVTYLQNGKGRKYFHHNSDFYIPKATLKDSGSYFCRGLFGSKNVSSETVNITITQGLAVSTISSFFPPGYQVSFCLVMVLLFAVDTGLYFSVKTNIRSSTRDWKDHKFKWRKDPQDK

CD70 = biological target: T5, CD70 (UniProt P32970 1-193, limits assumed); experiment: flow cytometry, anti-HIS antibody
T5 construct: whole, on cells
T5 sequence (looked up): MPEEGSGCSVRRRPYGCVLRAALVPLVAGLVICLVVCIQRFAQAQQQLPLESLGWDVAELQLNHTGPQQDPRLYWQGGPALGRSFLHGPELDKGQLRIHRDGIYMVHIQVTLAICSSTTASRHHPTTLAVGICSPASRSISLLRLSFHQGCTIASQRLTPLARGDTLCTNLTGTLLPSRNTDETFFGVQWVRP

CD79B = biological target: T6, CD79B (UniProt P40259 29-229, limits assumed); experiment: flow cytometry, anti-HIS antibody
T6 construct: whole, on cells
T6 sequence (looked up): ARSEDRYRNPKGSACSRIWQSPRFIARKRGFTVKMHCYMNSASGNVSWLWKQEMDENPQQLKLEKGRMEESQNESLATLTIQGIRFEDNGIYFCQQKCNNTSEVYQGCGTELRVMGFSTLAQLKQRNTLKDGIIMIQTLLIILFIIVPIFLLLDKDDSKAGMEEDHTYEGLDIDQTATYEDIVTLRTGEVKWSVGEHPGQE

CD135 = biological target: T7, CD135 (UniProt P36888 27-993, limits assumed); experiment: flow cytometry, anti-HIS antibody
T7 construct: whole, on cells; also called FLT-3

ROR1 = biological target: T8, ROR1 (UniProt Q01973 30-937, limits assumed); experiment: flow cytometry, anti-HIS antibody
T8 construct: whole, on cells

BCMA = biological target: T9, BCMA (UniProt Q02223 1-184, limits assumed); experiment: flow cytometry, anti-HIS antibody
T9 construct: whole, on cells
T9 sequence (looked up): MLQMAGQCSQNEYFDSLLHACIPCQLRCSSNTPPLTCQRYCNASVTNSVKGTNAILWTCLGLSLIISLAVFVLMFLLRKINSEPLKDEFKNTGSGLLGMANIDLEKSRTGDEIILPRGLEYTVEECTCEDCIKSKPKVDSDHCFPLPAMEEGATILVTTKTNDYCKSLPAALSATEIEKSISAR

EGFR = biological target: T10, EGFR (UniProt P00533 25-1210); experiment: flow cytometry, anti-HIS antibody
T10 construct: whole, on cells

CD22 [2] = biological target: T1, CD22; experiment: flow cytometry, anti-HIS antibody
CD123 = biological target: T11, CD123 (UniProt P26951 19-378, limits assumed); experiment: flow cytometry, anti-HIS antibody
T11 construct: whole, on cells; also called IL3RA
T11 sequence (P26951 19-378 limits assumed): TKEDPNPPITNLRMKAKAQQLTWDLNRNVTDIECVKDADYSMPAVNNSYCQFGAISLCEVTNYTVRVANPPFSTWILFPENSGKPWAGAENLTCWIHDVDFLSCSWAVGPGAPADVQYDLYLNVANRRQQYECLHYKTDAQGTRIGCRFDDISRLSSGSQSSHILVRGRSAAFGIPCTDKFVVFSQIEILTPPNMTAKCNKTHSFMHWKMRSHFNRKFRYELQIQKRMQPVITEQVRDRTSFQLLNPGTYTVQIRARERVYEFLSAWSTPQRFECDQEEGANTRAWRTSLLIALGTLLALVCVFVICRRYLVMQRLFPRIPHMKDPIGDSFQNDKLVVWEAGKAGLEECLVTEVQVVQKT

B1: CD22 bridging molecule derived from inotuzumab (Fab, V domains shown)
VH: EVQLVQSGAEVKKPGASVKVSCKASGYRFTNYWIHWVRQAPGQGLEWIGGINPGNNYATYRRKFQGRVTMTADTSTSTVYMELSSLRSEDTAVYYCTREGYGNYGAWFAYWGQGTLVTVSS
VL: DVQVTQSPSSLSASVGDRVTITCRSSQSLANSYGNTFLSWYLHKPGKAPQLLIYGISNRFSGVPDRFSGSGSGTDFTLTISSLQPEDFATYYCLQGTHQPYTFGQGTKVEIKR
notes: also called B024; CD22, Inotuzumab, B024-1_LC / B024-2_HC
binding result (CD22 [1]): binds

B2: CD37 bridging molecule derived from otlertuzumab (Fab, V domains shown)
VH: EVQLVQSGAEVKKPGESLKISCKGSGYSFTGYNMNWVRQMPGKGLEWMGNIDPYYGGTTYNRKFKGQVTISADKSISTAYLQWSSLKASDTAMYYCARSVGPFDSWGQGTLVTVSS
VL: EIVLTQSPATLSLSPGERATLSCRASENVYSYLAWYQQKPGQAPRLLIYFAKTLAEGIPARFSGSGSGTDFTLTISSLEPEDFAVYYCQHHSDNPWTFGQGTKVEIKR
notes: Fab with E200 at the N-terminus of the light chain, 6xHis on both chains; also called B026; CD37, Otlertuzumab, B026-1_LC / B026-2_HC
binding result (CD37): binds

B3: CD33 BRiDGE (B031) (Fab, V domains shown)
VH: QVQLVQSGAEVKKPGSSVKVSCKASGYTFTDYNMHWVRQAPGQGLEWIGYIYPYNGGTGYNQKFKSKATITADESTNTAYMELSSLRSEDTAVYYCARGRPAMDYWGQGTLVTVSS
VL: DIQMTQSPSSLSASVGDRVTITCRASESVDNYGISFMNWFQQKPGKAPKLLIYAASNQGSGVPSRFSGSGSGTDFTLTISSLQPDDFATYYCQQSKEVPWTFGQGTKVEIKR
notes: 6xHis on both chains; also called CD33 bridging molecule; CD33 Fab
binding result (CD33): binds

B4: OR_BiKE1 OR105 (nfP2X7 x CD16) (bispecific antibody)
chain: DIQMTQSPSSLSASVGDRVTITCRASQYIYDYLNWYQQKPGKAPKLLIYAASYLQSGVPSRFSGSGSGTDFTLTISSLQPEDFATYYCQQYHHPSTFGQGTKVEIKRGGGGSGGGGSGGGGSEVQLLESGGGLVQPGGSLRLSCAASGFTFRNHDMGWVRQAPGKGLEWVSAISGSGGSTYYANSVKGRFTISRDNSKNTLYLQMNSLRAEDTAVYYCAEPKPMDTEFDYRSPGTLVTVSSVEGGSGGSGGSGGSGGVDQVTLKESGPGILQPSQTLSLTCSFSGFSLRTSGMGVGWIRQPSGKGLEWLAHIWWDDDKRYNPALKSRLTISKDTSSNQVFLKIASVDTADTATYYCAQINPAWFAYWGQGTLVTVSSGGGGSGGGGSGGGGSDIVLTQSPASLAVSLGQRATISCKASQSVDFDGDSFMNWYQQKPGQPPKLLIYTTSNLESGIPARFSASGSGTDFTLNIHPVEEEDTATYYCQQSNEDPYTFGGGTKLEIKHHHHHH
binding result (CD16): binds

B5: CD70 bridging molecule derived from cusatuzumab (Fab, V domains shown)
VH: EVQLVESGGGLVQPGGSLRLSCAASGFTFSVYYMNWVRQAPGKGLEWVSDINNEGGTTYYADSVKGRFTISRDNSKNSLYLQMNSLRAEDTAVYYCARDAGYSNHVPIFDSWGQGTLVTVSS
VL: SQAVVTQEPSLTVSPGGTVTLTCGLKSGSVTSDNFPTWYQQTPGQAPRLLIYNTNTRHSGVPDRFSGSILGNKAALTITGAQADDEAEYFCALFISNPSVEFGGGTQLTVLK
notes: Fab with E200 at the N-terminus of the light chain, 6xHis on both chains; also called B028; CD70, Cusatuzumab, B028-1_LC / B028-2_HC
binding result (CD70): binds

B6: CD79B bridging molecule derived from polatuzumab (Fab, V domains shown)
VH: EVQLVESGGGLVQPGGSLRLSCAASGYTFSSYWIEWVRQAPGKGLEWIGEILPGGGDTNYNEIFKGRATFSADTSKNTAYLQMNSLRAEDTAVYYCTRRVPIRLDYWGQGTLVTVSS
VL: DIQLTQSPSSLSASVGDRVTITCKASQSVDYEGDSFLNWYQQKPGKAPKLLIYAASNLESGVPSRFSGSGSGTDFTLTISSLQPEDFATYYCQQSNEDPLTFGQGTKVEIKR
notes: Fab with E200 at the N-terminus of the light chain, 6xHis on both chains; also called B025; CD79B, Polatuzumab, B025-1 LC / B025-2_HC
binding result (CD79B): binds

B7: OR_BiKE2 OR106 (CD16 x nfP2X7) (bispecific antibody)
chain: DIVLTQSPASLAVSLGQRATISCKASQSVDFDGDSFMNWYQQKPGQPPKLLIYTTSNLESGIPARFSASGSGTDFTLNIHPVEEEDTATYYCQQSNEDPYTFGGGTKLEIKGGGGSGGGGSGGGGSQVTLKESGPGILQPSQTLSLTCSFSGFSLRTSGMGVGWIRQPSGKGLEWLAHIWWDDDKRYNPALKSRLTISKDTSSNQVFLKIASVDTADTATYYCAQINPAWFAYWGQGTLVTVSSVEGGSGGSGGSGGSGGVDEVQLLESGGGLVQPGGSLRLSCAASGFTFRNHDMGWVRQAPGKGLEWVSAISGSGGSTYYANSVKGRFTISRDNSKNTLYLQMNSLRAEDTAVYYCAEPKPMDTEFDYRSPGTLVTVSSGGGGSGGGGSGGGGSDIQMTQSPSSLSASVGDRVTITCRASQYIYDYLNWYQQKPGKAPKLLIYAASYLQSGVPSRFSGSGSGTDFTLTISSLQPEDFATYYCQQYHHPSTFGQGTKVEIKRHHHHHH
notes: 3G8 scFv-linker-BIL03/WTB1 scFv-6xHis
binding result (CD16): binds

B8: CD135 bridging molecule derived from 4G8 (Fab, V domains shown)
VH: QVQLQQPGAELVKPGASLKLSCKSSGYTFTSYWMHWVRQRPGHGLEWIGEIDPSDSYKDYNQKFKDKATLTVDRSSNTAYMHLSSLTSDDSAVYYCARAITTTPFDFWGQGTTLTVSS
VL: DIVLTQSPATLSVTPGDSVSLSCRASQSISNNLHWYQQKSHESPRLLIKYASQSISGIPSRFSGSGSGTDFTLSINSVETEDFGVYFCQQSNTWPYTFGGGTKLEIKR
notes: Fab with E200 at the N-terminus of the light chain, 6xHis on both chains; also called B041; CD135, clone 4G8, B041-1_LC / B041-2_HC
binding result (CD135): binds

B9: ROR1 bridging molecule derived from ROR1 APC (WO2016016344A1_D10v3) (Fab, V domains shown)
VH: QVQLKESGPGLVAPSQTLSITCTVSGFSLTSYGVHWVRQPPGKGLEWLGVIWAGGFTNYNSALKSRLSISKDNSKSQVLLKMTSLQTDDTAMYYCARRGSSYSMDYWGQGTSVTVSS
VL: EIVLSQSPAITAASLGQKVTITCSASSNVSYIHWYQQRSGTSPRPWIYEISKLASGVPVRFSGSGSGTSYSLTISSMEAEDAAIYYCQQWNYPLITFGSGTKLEIQR
notes: Fab with E200 at the N-terminus of the light chain, 6xHis on both chains; also called B044; ROR-1, clone D10v3, B044-1 LC / B044-2_HC
binding result (ROR1): binds

B10: BCMA bridging molecule derived from clone CA8 J9M0 (Fab, V domains shown)
VH: QVQLVQSGAEVKKPGSSVKVSCKGSGYTFTNYWMHWVRQAPGQGLEWIGATYRGHSDTYYNQKFKGRATLTADTSTSTAYMELSSLRSEDTAVYYCTRGAIYDGYDVLDNWGQGTLVTVSS
VL: DIQMTQSPSSLSASVGDRVTITCSASQDISNYLNWYQQKPGKAPKLLIYYTSNLHSGVPSRFSGSGSGTDFTLTISSLQPEDFATYYCQQYRKLPWTFGQGTKLEIKR
notes: Fab with E200 at the N-terminus of the light chain, 6xHis on both chains; also called B039; BCMA, clone CA8 J9M0, B039-1_LC / B039-2_HC
binding result (BCMA): binds

B11: EGFR bridging molecule derived from matuzumab (Fab, V domains shown)
VH: QVQLVQSGAEVKKPGASVKVSCKASGYTFTSHWMHWVRQAPGQGLEWIGEFNPSNGRTNYNEKFKSKATMTVDTSTNTAYMELSSLRSEDTAVYYCASRDYDYDGRYFDYWGQGTLVTVSS
VL: DIQMTQSPSSLSASVGDRVTITCSASSSVTYMYWYQQKPGKAPKLLIYDTSNLASGVPSRFSGSGSGTDYTFTISSLQPEDIATYYCQQWSSHIFTFGQGTKVEIKR
notes: also called B035; EGFR, Matuzumab, B035-1_LC / B035-2_HC
binding result (EGFR): binds

B12: CD22 bridging molecule derived from m971-L7 (Fab, V domains shown)
VH: QVQLQQSGPGMVKPSQTLSLTCAISGDSVSSNSVAWNWIRQSPSRGLEWLGRTYYRSTWYNDYAVSMKSRITINPDTNKNQFSLQLNSVTPEDTAVYYCAREVTGDLEDAFDIWGQGTMVTVSS
VL: DIQMIQSPSSLSASVGDRVTITCRASQTIWSYLNWYRQRPGEAPNLLIYAASSLQSGVPSRFSGRGSGTDFTLTISSLQAEDFATYYCQQSYSIPQTFGQGTKLEIKR
notes: Fab with E200 at the N-terminus of the light chain, 6xHis on both chains; also called B023; CD22, m971-L7, B023-1 LC / B023-2_Heavy Chain
binding result (CD22 [2]): binds

B13: CD123 bridging molecule derived from clone 32716 (Fab, V domains shown)
VH: QIQLVQSGPELKKPGETVKISCKASGYIFTNYGMNWVKQAPGKSFKWMGWINTYTGESTYSADFKGRFAFSLETSASTAYLHINDLKNEDTATYFCARSGGYDPMDYWGQGTSVTVSS
VL: DIVLTQSPASLAVSLGQRATISCRASESVDNYGNTFMHWYQQKPGQPPKLLIYRASNLESGIPARFSGSGSRTDFTLTINPVEADDVATYYCQQSNEDPPTFGAGTKLELKR
notes: Fab with E200 at the N-terminus of the light chain, 6xHis on both chains; also called B042; CD123, clone 32716, B042-1_LC / B042-2_HC
binding result (CD123): binds

Source: patent US20240368282A1 (BIOSCEPTRE AUST, published 2024)
